# Laboratory results from patent US20250051449A1 (SURFACE ONCOLOGY, published 2025).
# Residue numbers refer to the chain shown, from its start.
# T1: human CD112R expressed on Jurkat cells (human, UniProt Q6DKI7 1-326)
# T1 construct: whole, on cells; Used for both Jurkat-CD112R OE cells and wild type Jurkat cells; which cells is said under assay; also called PVRIG; Jurkat-CD112R OE
# T1 sequence (looked up): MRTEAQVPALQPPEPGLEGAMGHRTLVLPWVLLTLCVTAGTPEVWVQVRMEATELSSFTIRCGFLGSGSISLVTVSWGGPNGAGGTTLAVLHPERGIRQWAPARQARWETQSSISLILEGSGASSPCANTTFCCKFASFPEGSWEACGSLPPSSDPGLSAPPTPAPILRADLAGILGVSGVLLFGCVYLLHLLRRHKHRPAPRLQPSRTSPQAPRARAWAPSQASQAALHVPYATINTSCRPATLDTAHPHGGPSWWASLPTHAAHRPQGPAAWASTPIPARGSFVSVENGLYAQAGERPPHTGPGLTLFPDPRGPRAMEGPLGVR
# T2: CD112R-hIgG4 fusion protein (human, UniProt Q6DKI7 41-171, limits assumed)
# T2 construct: also called human CD112R-hIgG4; not shown: human IgG4 portion (hIgG4)
# T2 sequence (looked up): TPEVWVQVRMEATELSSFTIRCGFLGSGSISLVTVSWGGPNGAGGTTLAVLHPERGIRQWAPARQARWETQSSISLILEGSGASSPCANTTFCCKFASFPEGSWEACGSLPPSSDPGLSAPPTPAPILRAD
# B1: Antibody 46 (antibody, V domains shown)
# VH: EVQLVESGGGLVQPGRSLRLSCTASGFTFGDYAMSWFRQAPGKGLEWVGFIGSKAYGGTTEYTASVKGRFTISRDGSKSIAYLQMNSLKTEDTAVYYCARGPRRYTYGMDVWGQGTTVTVSS
# VL: DIQMTQSPSSLSASVGDRVTITCRASQSISSYLNWYQQKPGKAPKLLIYAASSLQSGVPSRFSGSGSGTDFTLTISSLQPEDFATYYCQQSSTPLTFGGGTKVEIK
# notes: in the mouse tumor studies it was used as mouse IgG2a; also called antibody clone number 46; clone 46
# B2: Antibody 32 (antibody, V domains shown)
# VH: QVQLVQSGAEVKKPGSSVKVSCKASGGTFSSYAISWVRQAPGQGLEWMGGIIPISGTANYAQKFQGRVTITADESTSTAYMELSSLRSEDTAVYYCARDTGRGYTRHFWFDPWGQGTLVTVSS
# VL: B1 VL with S92D, T93I, P94L, L95Y
# notes: Purified as IgG; compared with an IgG1 isotype control and detected with anti-human IgG Fc; also called antibody clone number 32; parent clone 32
# B3: Antibody 35 (antibody, V domains shown)
# VH: B2 VH with Y32A, G50N, S55V, T57I
# VL: B1 VL with S92D, T93I, P94L, L95Y
# notes: Purified as IgG; compared with an IgG1 isotype control and detected with anti-human IgG Fc; also called antibody clone number 35; clone 35
# B4: Antibody 58 (antibody, V domains shown)
# VH: B1 VH with A55F, T59E
# VL: B1 VL
# notes: Purified as IgG; compared with an IgG1 isotype control and detected with anti-human IgG Fc; also called antibody clone number 58; clone 58
# B5: Antibody 34 (antibody, V domains shown)
# VH: B2 VH with Y32A, I52F, T57H
# VL: B1 VL with S92D, T93I, P94L, L95Y
# notes: Purified as IgG; compared with an IgG1 isotype control and detected with anti-human IgG Fc; also called antibody clone number 34; clone 34
# B6: Antibody 36 (antibody, V domains shown)
# VH: B2 VH with S30A, S31T, I52F, I54L
# VL: B1 VL with S92D, T93I, P94L, L95Y
# notes: Purified as IgG; compared with an IgG1 isotype control and detected with anti-human IgG Fc; also called antibody clone number 36; clone 36
# B7: Antibody 33 (antibody, V domains shown)
# VH: B2 VH with S30G, S31N, S55P, T57I
# VL: B1 VL with S92D, T93I, P94L, L95Y
# notes: Purified as IgG; compared with an IgG1 isotype control and detected with anti-human IgG Fc; also called antibody clone number 33; clone 33
# Target: T1, human CD112R expressed on Jurkat cells
# Test: flow cytometry competition on Jurkat-CD112R OE cells; competitor biotinylated his-tagged human CD112
# Protocol: The ability of anti-CD112R antibodies to block CD112 binding to CD112R expressing cells was evaluated. 1×10⁵ Jurkat cells (acute T cell leukemia cell line, ATCC #TIB-152) that were engineered to over-express human CD112R (Jurkat-CD112R OE) were added to each well of a 96-well V bottom plate and stained with serial dilutions of either anti-CD112R antibodies or an IgG1 isotype control (highest concentration, 10 μg/mL) for 1 hour at 4° C. Cells were washed twice with PBS+2% FCS and resuspended with biotinylated his-tagged human CD112 (3 μg/mL) (BPS Bioscience, #71234) and PE Streptavidin (5 μg/mL) (Biolegend, #405204) in PBS+2% FCS and incubated at 2 hours at 4° C. Cells were subsequently washed twice and resuspended in PBS+2% FCS. Cellular data was acquired using a LSRFortessa X-20 (BD Biosciences) and analyzed with FlowJo software (Tree Star).
# Results are depicted in FIG. 2A and Table 2. […] Percent inhibition was calculated as [100−((test sample MFI/Max MFI)*100%)]
Binder,CD112 blocking max inhibition (%),IC50 [µg/mL]
B1,95.5,0.0162
B2,96,0.0236
B3,97.4,0.0162
B4,96.3,0.0028
B5,96.9,0.0132
B6,97.5,0.0244
B7,97.4,0.0219

# Target: T2, CD112R-hIgG4 fusion protein
# Test: blocking ELISA: coated CD112R-hIgG4, antibody, then biotinylated CD112 Fc
# Protocol: The ability of anti-CD112R antibodies to block human CD112R was also evaluated by ELISA. Briefly, 96 well Nunc Maxisorp plates were coated with 1 μg/mL of a CD112R-hIgG4 fusion protein in PBS overnight at 4° C. […] After blocking, plates were washed 6× with PBST. Next, 100 μl of anti-CD112R antibodies in PBS+1% BSA was added at a final starting concentration of 10 μg/mL, with 4-fold serial dilutions. Plates were incubated at room temperature for 1.5 hours. Next plates were washed 6× with PBST and then incubated with 1 μg/ml CD112 Fc protein (R&D Systems, Cat #9317-N2-050) that was biotinylated with a sulfo-NHS biotinylation kit (Thermo Fisher, Cat #21925) in 100 μl of PBS+1% BSA for 1 hour at room temperature. Plates were then washed 6× with PBST and subsequently incubated with streptavidin-HRP (Biolegend, Cat #405210) diluted in PBS+1% BSA according to the manufacturer recommendation for 1 hour at room temperature. Following this incubation, plates were then washed 6× with PBST and developed with TMB substrate (Life Technologies, Cat #002023). The reaction was stopped with an equal volume of stop solution (Life Technologies, Cat #SS04). Absorbance at 450 nm (O.D. 450) was measured on a SpectraMax plate reader.
# Results are depicted in FIG. 2B and Table 2. […] Percent inhibition was calculated as [100−((test sample O.D. 450/Max 0.D. 450)*100%)] Max O.D. 450 was defined as absorbance at 450 nm in the absence of antibody.
row,Binder,CD112 blocking max inhibition ELISA (%)
1,B1,97.6
2,B2,75.1
3,B3,81.7
4,B4,97.3
5,B5,80
6,B6,86.2
7,B7,78.8
